Key:
Experiment in all cases: two-hybrid; pairwise split-ubiquitin yeast two-hybrid of four baits (slToc159-1AGM, -1GM, -2AGM, -2GM) with isolated prey vectors in NMY51; qualitative PXG assay and quantitative β-galactosidase activity in 96-well plates, 60 min, mean of three experiments
[1] = biological target: slToc159-1GM bait protein (tomato (Solanum lycopersicum))
[2] = biological target: slToc159-2AGM bait protein (tomato (Solanum lycopersicum))
[3] = biological target: slToc159-2GM bait protein (tomato (Solanum lycopersicum))
[4] = biological target: slToc159-1AGM bait protein (tomato (Solanum lycopersicum))

Substance	decrease in interaction strength (β-galactosidase activity) against slToc159-1AGM [1]	increase in interaction strength (β-galactosidase activity) against slToc159-2GM [2]	also measured
Chlorophyll a-b binding protein 8 (natural protein)	49.2%	–	–
SufE-like protein 1 (natural protein)	–	509%	–
Photosystem I reaction center subunit III (natural protein)	46.3%	–	decrease in affinity (β-galactosidase activity) against Toc159-2AGM [3]: 86%
Chlorophyll a-b binding protein (CAB11) (natural protein)	20.7%	–	–
Chlorophyll a-b binding protein 7 (natural protein)	65.4%	–	increase in interaction strength (β-galactosidase activity) against slToc159-2AGM [3]: 21.7%
Stearoyl-[acyl-carrier-protein] 9-desaturase (natural protein)	–	81.1%	relative increase in interaction strength (β-galactosidase activity) against slToc159-1GM [4]: 866%
Heat shock cognate 70 kDa protein (natural protein)	–	406%	–
Chlorophyll a-b binding protein CP24 (natural protein)	–	–	decrease in affinity (β-galactosidase activity) against Toc159-2AGM [3]: 75.5%
RuBisCO small subunit 1 (natural protein)	–	–	increase in interaction strength (β-galactosidase activity) against slToc159-2AGM [3]: 79.9%
Photosystem I subunit O (natural protein)	93.8%	–	decrease in affinity (β-galactosidase activity) against Toc159-2AGM [3]: 72.7%
RuBisCO small subunit 3 (natural protein)	24.5%	–	decrease in affinity (β-galactosidase activity) against Toc159-2AGM [3]: 37.1%
Serine hydroxymethyl transferase (natural protein)	–	889%	–
photosystem II subunit S (natural protein)	76.6%	–	–
Hop-interacting protein (THI026) (natural protein)	–	152%	–
Cell division protein FtsZ (natural protein)	–	–	relative increase in interaction strength (β-galactosidase activity) against slToc159-1GM [4]: 66.1%
thiamine biosynthesis protein (ThiC) (natural protein)	–	81.6%	relative increase in interaction strength (β-galactosidase activity) against slToc159-1GM [4]: 476%
RuBisCO small subunit 2A (natural protein)	62.4%	–	increase in interaction strength (β-galactosidase activity) against slToc159-2AGM [3]: 615%
3-oxoacyl-[acyl-carrier-protein] reductase (natural protein)	–	61.7%	–
Photosystem II 23 kDa protein (natural protein)	88.7%	–	decrease in affinity (β-galactosidase activity) against Toc159-2AGM [3]: 89.2%
Chlorophyll a/b binding protein Cab-3C (natural protein)	38.4%	–	increase in interaction strength (β-galactosidase activity) against slToc159-2AGM [3]: 1360%
Photosystem I reaction center subunit II (natural protein)	62%	–	increase in interaction strength (β-galactosidase activity) against slToc159-2AGM [3]: 57.8%
Glutamine synthetase (natural protein)	–	–	relative increase in interaction strength (β-galactosidase activity) against slToc159-1GM [4]: 28.8%
Photosystem I reaction center subunit IV A (natural protein)	–	–	decrease in affinity (β-galactosidase activity) against Toc159-2AGM [3]: 53.7%

From article PMC9654457
